Source: patent publication US7071384B2, “Methods for commercial production of heterologous laccase in plant tissue and extraction of the laccase from plant seed” (Genencor International, Inc., priority 1997, dated 2006)

Key:
[1] = Storage stability of rGUS in flaked corn kernels; format: physicochemical
Procedure: Dry corn kernels (12% moisture, 500 g per batch) were cracked using a roller mill (Ferrel-Ross, Oklahoma City, Okla.), then flaked to 0.3 mm thickness using Roskamp flaking rolls (Model K, Roskamp Mfg., Inc., Waterloo, Iowa.). Seven 500-gram batches of flaked corn kernels were placed in zip-lock bags and stored at each of four different temperatures for up to 95 days. The storage stability study was performed in triplicate; three 50-g samples per time and per temperature. To determine the activity of GUS, a 20-g sample was taken from each of the three 50-g bags at the specified time and extracted with 200 ml of 20 mM Tris-HCl pH 7.9 containing 500 mM NaCl and 1 mM CaCl2. Extraction was carried out using a paddle mixer at ambient temperature for 30 min.

[2] = Heat stability of rGUS in whole corn kernels; format: physicochemical
[3] = Large-scale custom milling of transgenic corn, rGUS activity retention; format: physicochemical; details: 1,000 kg corn milled, less than 1 min at 90° C., bagged at about 50° C., 2 h at 30° C., overnight at 10° C.
Procedure: The heat stability results obtained in the laboratory were validated on a large scale. During the processing of 1,000 kg of transgenic corn in a custom-milling plant located in Grinnell, Iowa, the corn was exposed for a short time (less than 1 min) to 90° C. The milled corn was bagged at approximately 50° C., transported at ambient temperature (30° C.) for two hours to Iowa State University, and then stored overnight at 10° C. before the rGUS activity was determined.

[4] = rGUS activity after extraction treatments (hexane defatting; SDS/ME buffer); format: physicochemical
Procedure: A portion of the germ sample prepared by the degermination process was defatted by using a Soxhlet apparatus. Forty grams of full-fat germ were extracted with 300 ml of hexane for five hours, and then air-dried at ambient temperature to remove the hexane.
All samples (flaked kernels, full-fat germ and defatted germ) were ground using a coffee grinder before protein extraction. The samples were extracted at 1:4 or 1:10 solid-to-liquid ratio with 50 mM NaPi buffer of pH 7.5. The extraction was carried out for 15 minutes at ambient temperature by using a magnetic stirrer for mixing less than 50-ml and a paddle mixer for greater than 50-ml volumes. After stirring, the suspension was centrifuged at 26,000 g for 25 min at 0° C., and then filtered through a 4-layer of cheesecloth. The extract was assayed for GUS activity (Hood et al., supra) and protein (Jefferson, R. A.; Wilson, K. J. (1991). In The GUS Gene Fusion system. In “Plant Molecular Biology Manual”, Vol. 1, B14, (S. B. Gelven, R. A. Schilperoort and D. P. S. Verma, eds.). Kluwer Academic Publisher, Dordrecht, Belgium. pp.1–33).
To determine whether a complete extraction of rGUS from corn kernels, full-fat germ and defatted germ was achieved, the remaining solids were stained with X-Gluc. […] The Western blot analysis of the spent solids confirmed the presence of unextracted rGUS. […]

[5] = rGUS specific activity after three-step chromatography purification; format: biochemical
Excerpt: Distribution of rGUS in the Corn Kernel Tissue Corn kernels (100 g) were soaked in deionized water for two days. In two days separation of germ, hull and endosperm was completed and soaked for 2–3 days. The first half was soaked for 2 days, and the other half for 3 days. The hulls, endosperm, and germ were manually separated. Each fraction was air-dried at ambient temperature and ground with a coffee grinder (Salton/Maxim Housewares Inc., Mont. Prospect,Ill.). rGUS activity and the moisture content of each ground sample were determined. rGUS activity was determined using the assay described by Jefferson and Wilson (Jefferson, R. A.; Wilson, K. J. (1991). In The GUS Gene Fusion system. In “Plant Molecular Biology Manual”, Vol. 1, B14, (S. B. Gelven, R. A. Schilperoort and D. P. S. Verma, eds.). Kluwer Academic Publisher, Dordrecht, Belgium. pp.1–33). One unit (U) of rGUS activity was defined as the amount of enzyme that converts one nmole of p-nitrophenyl β-D-glucuronide per minute at pH 7.0 and 37° C. Storage and Heat Stability
Purification Recombinant GUS was purified from ground kernels, full-fat germ and defatted germ using a three-step chromatography. Ground corn kernels (75 g), full-fat germ (7.5 g), and defatted germ (7.5 g) samples were extracted with 50 mM NaPi buffer pH 7.5 (buffer A) at 1:4 or 1:10 solid-to-liquid ratio as described in the previous section. Fifteen ml of DEAE-Toyopearl (Supelco, Bellefonte, Pa.) resin in buffer A were added to the centrifuged and filtered extract to adsorb (capture) rGUS. The slurry was mixed with a magnetic stirrer for 15 min at ambient temperature, filtered through a funnel-supported No. 1 filter paper, and washed with 400 ml of buffer A. The washed DEAE resin was packed into a glass column with an inside diameter of 1.5 cm. The adsorbed rGUS was eluted with 0.3 M NaCl in buffer A. The fractions containing rGUS activity were combined, ammoniumsufate (AS) was added to a final concentration of 1 M, and the solution was filtered through a 0.45 μfilter. […]

B1: rGUS: recombinant β-glucuronidase produced in transgenic corn kernels (protein)
chain: MLRPVETPTREIKKLDGLWAFSLDRENCGIDQRWWESALQESRAIAVPGSFNDQFADADIRNYAGNVWYQREVFIPKGWAGQRIVLRFDAVTHYGKVWVNNQEVMEHQGGYTPFEADVTPYVIAGKSVRITVCVNNELNWQTIPPGMVITDENGKKKQSYFHDFFNYAGIHRSVMLYTTPNTWVDDITVVTHVAQDCNHASVDWQVVANGDVSVELRDADQQVVATGQGTSGTLQVVNPHLWQPGEGYLYELCVTAKSQTECDIYPLRVGIRSVAVKGEQFLINHKPFYFTGFGRHEDADLRGKGFDNVLMVHDHALMDWIGANSYRTSHYPYAEEMLDWADEHGIVVIDETAAVGFNLSLGIGFEAGNKPKELYSEEAVNGETQQAHLQAIKELIARDKNHPSVVMWSIANEPDTRPQGAREYFAPLAEATRKLDPTRPITCVNVMFCDAHTDTISDLFDVLCLNRYYGWYVQSGDLETAEKVLEKELLAWQEKLHQPIIITEYGVDTLAGLHSMYTDMWSEEYQCAWLDMYHRVFDRVSAVVGEQVWNFADFATSQGILRVGGNKKGIFTRDRKPKSAAFLLQKRWTGMNFGEKPQQGGKQ
[1]; flaked kernels at 10° C. for up to 3 months
  loss of rGUS activity: 23%
[1]; flaked kernels at 25° C. after three weeks (sample spoilage)
  loss of initial GUS activity: 13%
[1]; flaked kernels at 37° C. for one week
  loss of initial rGUS activity: 23%
[1]; flaked kernels at −29, 10, or 25° C. for up to 2 weeks
  rGUS activity loss: no significant loss of rGUS activity
[1]; flaked kernels at −29° C. for up to 3 months
  loss of rGUS activity: 14%
[2]; kernels, 50° C. for up to six days
  rGUS activity after heating: fully retained
[2]; kernels, 70° C. for 8 hours
  loss of initial rGUS activity: 60%
[2]; kernels, 70° C. for one hour
  rGUS activity after heating: did not significantly affect rGUS activity
[2]; kernels, 90° C. for one hour
  residual rGUS activity: No residual rGUS activity
[2]; kernels, 125° C. for 10 minutes
  residual rGUS activity: No residual rGUS activity
[2]; whole kernels, 50° C. for up to eight hours
  rGUS activity after heating: did not affect rGUS activity
[3]
  rGUS activity loss: no loss of rGUS activity
[4]; 1% (v/v) SDS and 2% (v/v) ME in extraction buffer
  rGUS activity after extraction with detergent: inactive
[4]; germ defatted with hexane (˜60° C.)
  rGUS activity after corn oil extraction: did not affect the activity of rGUS
[5]; purified from defatted germ, solid-to-liquid ratio 1:10
  Specification activity: 36,000 U/mg
[5]; purified from flaked corn, solid-to-liquid ratio 1:4
  Specification activity: 36,000 U/mg
[5]; purified from full-fat germ, solid-to-liquid ratio 1:10
  Specification activity: 45,000 U/mg
